Test results from the supplement of paper PMC10126150.
± gives the standard deviation of the averaged measurements.

Test system: ATP
Assay: switch fluorescence ratio, 500 uM ATP over buffer (Cy3 cluster intensity, sum of 5 cycles each) (fold (ratio)); higher = stronger signal-on switching upon ATP binding; sequences stand for … in TCGTCGGCAGCGTCAGATGTGTATAAGAGACAGTTTTTTTTTTTTTTTTTTTTTTTTT…TC
Conditions: aptamer strand: ATP DNA aptamer (quencher-CACCTGGGGGAGTATTGCGGAGGAAGG + anchor), 100 nM annealed; ATP concentration: 500 uM
Procedure, shortened: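 Cy3-labelled switching-strand clusters on a modified Illumina MiSeq flow-cell were annealed to 100 nM quencher-labelled ATP aptamer and imaged first in selection buffer, then after 15 min with 500 uM ATP at 22 °C. NaOH stripping and re-annealing separated each of five buffer/ATP cycles, and clusters outside 100-1000 RFU were excluded. The fluorescence ratio sums target-cycle Cy3 intensity over buffer-cycle Cy3 intensity per cluster and averages it per switch-domain sequence.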
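Also: ATP exposure 15 min at 22 °C before imaging.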

Row | Sequence | switch fluorescence ratio
1 | CAAAGCTATT | 1.008 ± 0.006
2 | CAAAGCTTGA | 1.01 ± 0.036
3 | CAAAGGGAAA | 1.02 ± 0.033
4 | CAAAGGGCGG | 0.9985 ± 0.0012
5 | CAAAGGTTAG | 1.0209 ± 0.001
6 | CAAAGTACAA | 1.17 ± 0.02
7 | CAAAGTGTGG | 0.989 ± 0.054
8 | CAAAGTTGGT | 0.994 ± 0.05
9 | CAAATAAACC | 1.03 ± 0.018
10 | CAAATAACGT | 0.9893 ± 0.0097
11 | CAAATAGATG | 1 ± 0.029
12 | CAAATCCTAT | 1.01 ± 0.013
13 | CAAATGGTCT | 1 ± 0.013
14 | CAAATTGGGT | 0.996 ± 0.04
15 | CAAATTTGAT | 1.03 ± 0.027
16 | CAAATTTGGG | 1.02 ± 0.014
17 | CAAATTTGTC | 0.994 ± 0.02
18 | CAACAACTTC | 1.01 ± 0.0034
19 | CAACAGGGGT | 1.14 ± 0.23
20 | CAACATGTTT | 1.02 ± 0.03
21 | CAACCGCCTT | 1.46 ± 0.12
22 | CAACCTGAAC | 2.39 ± 0.2
23 | CAACGAGTGG | 1.012 ± 0.0028
24 | CAACGGGGGT | 1.03 ± 0.018
25 | CAACGTAGGT | 1.05 ± 0.013

Row | Sequence | switch fluorescence ratio
26 | CAAGAAAAGT | 0.978 ± 0.048
27 | CAAGAGGGTC | 1.04 ± 0.067
28 | CAAGAGTATT | 0.995 ± 0.022
29 | CAAGAGTGC | 1.025 ± 0.0091
30 | CAAGATCGGC | 1.01 ± 0.079
31 | CAAGATGGGA | 0.963 ± 0.082
32 | CAAGATGTTG | 0.987 ± 0.047
33 | CAAGCCGGGG | 0.979 ± 0.021
34 | CAAGCGTGCG | 0.98 ± 0.012
35 | CAAGGAAGGA | 0.9967 ± 0.005
36 | CAAGGAGTCT | 1.02 ± 0.035
37 | CAAGGATACA | 1 ± 0.034
38 | CAAGGATTTA | 1.02 ± 0.044
39 | CAAGGGAGGG | 0.991 ± 0.047
40 | CAAGGGGCAC | 1.02 ± 0.02
41 | CAAGGGGGCC | 1.14 ± 0.18
42 | CAAGGGGTAA | 0.9524 ± 0.0052
43 | CAAGGGGTGG | 0.996 ± 0.019
44 | CAAGGGTGGT | 1.03 ± 0.023
45 | CAAGGGTGTG | 0.988 ± 0.012
46 | CAAGTCTAGA | 0.995 ± 0.026
47 | CAAGTGAAGC | 0.9539 ± 0.005
48 | CAAGTGAGAA | 1.02 ± 0.049
49 | CAAGTGATAT | 1.05 ± 0.014
50 | CAAGTGCTGT | 0.98 ± 0.033

Row | Sequence | switch fluorescence ratio
51 | CAAGTGTGAG | 0.985 ± 0.013
52 | CAAGTTCAAA | 1.013 ± 0.0055
53 | CAAGTTGACC | 1.01 ± 0.046
54 | CAAGTTGGCT | 0.987 ± 0.039
55 | CAAGTTGTTA | 0.964 ± 0.029
56 | CAATAGACGG | 1.04 ± 0.046
57 | CAATAGCACG | 1.03 ± 0.027
58 | CAATAGGGGA | 1.01 ± 0.017
59 | CAATATGTTT | 0.991 ± 0.051
60 | CAATATTAGT | 0.996 ± 0.024
61 | CAATCTGGGA | 0.978 ± 0.019
62 | CAATCTTTAA | 1.02 ± 0.034
63 | CAATGCGTAT | 1.01 ± 0.07
64 | CAATGGAGAG | 1 ± 0.018
65 | CAATGGAGGC | 0.976 ± 0.072
66 | CAATGGAGGG | 0.992 ± 0.033
67 | CAATGGCCTC | 1 ± 0.047
68 | CAATGGGGGC | 1.02 ± 0.045
69 | CAATGGTTAG | 0.998 ± 0.026
70 | CAATGTAGGG | 1.004 ± 0.0077
71 | CAATGTAGGT | 1.02 ± 0.02
72 | CAATTACGCA | 1.186 ± 0.00065
73 | CAATTAGCAT | 1.03 ± 0.017
74 | CAATTAGGTC | 0.994 ± 0.024
75 | CAATTATATG | 0.9961 ± 0.0071

Row | Sequence | switch fluorescence ratio
76 | CAATTATGTA | 0.963 ± 0.016
77 | CAATTCATGG | 0.992 ± 0.073
78 | CAATTGCAGG | 1.01 ± 0.014
79 | CAATTGGGGT | 1.03 ± 0.06
80 | CACAAACCAG | 1.34 ± 0.37
81 | CACAATATGT | 1.07 ± 0.078
82 | CACAATCGGG | 1.005 ± 0.0088
83 | CACACGTACA | 1.769 ± 0.01
84 | CACACGTGGT | 0.9908 ± 0.0036
85 | CACAGAGGGG | 1.02 ± 0.028
86 | CACAGCAGCG | 1.048 ± 0.0029
87 | CACAGCTAAA | 1.09 ± 0.018
88 | CACAGGCCAA | 1.2 ± 0.029
89 | CACAGGGAGT | 1.03 ± 0.021
90 | CACATGCTCG | 1.05 ± 0.076
91 | CACATGCTGT | 0.995 ± 0.038
92 | CACATGTGCC | 1.01 ± 0.021
93 | CACATTTTTG | 0.995 ± 0.023
94 | CACCATCTTG | 0.987 ± 0.019
95 | CACCCCGGTT | 1.12 ± 0.051
96 | CACCCGGGCA | 1.07 ± 0.06
97 | CACCCTTTTC | 1.02 ± 0.024
98 | CACCGCGTCG | 1.21 ± 0.017
99 | CACCGGCTTT | 1.1 ± 0.14
100 | CACCGGTGTT | 1.02 ± 0.032
